The values that follow come from patent publication US20180215829A1 (published 2018).

B1: VH clone 2.1 (VHH)
VHH: QVQLVQSGAEVKKPGASVKVSCKASGYPFTSYDINWVRQATGQSLEWMGWMNPNSGDTVYAQKFQGRVTMTRNTSISTAYMELSSLRSEDTAVYFCARGRRDDWKNNYWGQGTLVTVSS
B2: VH clone 1.2 (VHH)
VHH: EVQLVESGGGLVQPGRSLRLSCAASGFTFDDYAMHWVRQAPGKGLEWVSGISWNSGRMDYADSVKGRFTISRDNAKNSLYLQMNSLRAEDTALYYCAKEKGLGYCRGGSCSYFDYRGQGTLVTVSS
B3: VH clone 1.1 (VHH)
VHH: QVQLVESGGGLVQPGRSLRLSCAASGFTFDDYAMHWVRQAPGKGLEWVSGISWNSGRMDYADSVKGRFTISRDNAKKSLYLQMNSLRAEDTAMYYCAKEKGLGFCRGGSCSYFDYRGQGTLVTVSS

The target of the assay is recombinant human IL-17RA Fc fusion protein (R&D Systems 177-IR-100) (UniProt Q96F46 33-320). The assay can be described thus: BIAcore. On the technique in general: Surface plasmon resonance follows binding to a sensor surface in real time, without labels.
Chain of recombinant human IL-17RA Fc fusion protein (R&D Systems 177-IR-100) (Q96F46 33-320): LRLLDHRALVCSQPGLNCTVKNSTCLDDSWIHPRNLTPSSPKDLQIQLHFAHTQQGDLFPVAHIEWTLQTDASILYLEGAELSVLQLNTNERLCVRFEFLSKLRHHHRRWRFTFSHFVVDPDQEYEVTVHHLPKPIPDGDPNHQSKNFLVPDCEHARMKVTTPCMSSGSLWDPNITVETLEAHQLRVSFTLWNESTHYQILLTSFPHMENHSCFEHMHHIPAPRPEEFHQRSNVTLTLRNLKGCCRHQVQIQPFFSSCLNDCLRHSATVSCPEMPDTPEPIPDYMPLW
As usually defined, the koff is a measure of how fast the partners let go of each other. Consider B1, for which the koff was determined as 0.00384 s⁻¹.
For B2, the koff is 5.79e-05 s⁻¹.
Regarding B3, the koff is 5.83e-05 s⁻¹.
